These results are taken from patent US20110280881A1, “NOVEL ANTI-HSP90 MONOCLONAL ANTIBODY” (RIKEN, priority 2010, published 2011).

Common to all, as to type: binding
One assay relates to HSP90. In words: Western blot of DC2.4 dendritic cell line extract with anti-HSP90 antibodies. As to conditions: SDS-PAGE. The protocol: A BALE/c mouse was twice immunized with 50 μg of human recombinant HSP90α (prepared using an Escherichia coli expression vector supplied by Professor Takayuki Nemoto at the Nagasaki University School of Dentistry; see J. Biol. Chem. 272:26179-26187, 1997). The adjuvant used was 50 μl of TiterMax Gold (TiterMax, Ga., USA). Three days after final immunization, splenocytes were taken out from the immunized mouse and fused with P3U1 myeloma cells in a 1:1 ratio by means of polyethylene glycol 4000. The fused cells were seeded to a 96-well plate at 5000 cells/well and cultured in an HAT selection culture broth (an RPMI containing 10% FCS, supplemented with 0.1 mM hypoxanthine, 0.016 mM thymidine, and […] aminopterin) for 10 days. The antibodies against HSP90a present in the supernatants in wells containing proliferated cells were detected by ELISA. The hybridomas secreting the antibodies against HSP90α were re-seeded at 0.2 cells/well and further cultured using an HT selection culture broth (an RPMI containing 10% FCS, supplemented with 0.1 mM hypoxanthine and 0.016 mM thymidine) for 10 days. For the antibodies in the supernatants of proliferated cells, it was confirmed using ELISA and Western blotting that antibodies against HSP90 were secreted. […]

Assay [1] deals with cell surface HSP90. Put plainly: FACS staining of cell surface HSP90 on DC2.4 cells not subjected to membrane permeabilization. As to conditions: DC2.4 cells not permeabilized, biotinylated antibody 1 μg/ml, 4° C. The protocol:
(§1) (1) 1.1 mg of the biotinylation reagent EZ-Link (registered trademark) Sulfo-NHS-Biotin (21217, Takara Bio Inc.) was dissolved in 250 μl of pure water (concentration 10 mM). 2 of the solution of the biotinylation reagent was added to 100 of an antibody protein (1 mg/ml), and the reaction was allowed to proceed while cooling on ice for 2 hours. After the reaction, the unreacted biotin reagent was removed using Centricon[5k] (Millipore). The reaction product was adjusted to a final concentration of 1 mg/ml and stored at 4° C. (2) DC2.4 not subjected to membrane permeabilization (1×10^6 cells/0.1 ml), along with the biotinylated anti-HSP90 antibody (1 μg/ml), was incubated at 4° C. for 30 minutes. For negative control, DC2.4 was likewise incubated in an antibody-free PBS. (3) After the unreacted antibody was removed, DC2.4 (1×10^6 cells/0.1 ml), along with PE-cy5 streptavidin (eBioscience, 15-4317-82, used at a concentration of 0.5 μg/ml), was incubated at 4° C. for 30 minutes. (4) After the unreacted PE-cy5 streptavidin was removed, the cells were analyzed by FACS (Becton Dickinson).
The right panels of FIGS. 2A and B show FACS data (histograms) for DC2.4 cells stained with each monoclonal antibody in the same manner as Example 2.

Assay [2] has as its system cell surface HSP90. Put plainly: FACS staining of antigen-presenting cells with the 6H8 antibody. The settings on record: DC2.4, mouse BMDC, human immature and mature DC, mouse peritoneal macrophages, J774. The procedure: as §1, with “Dickinson). […]” for “Dickinson).”
The next assay deals with mouse HSP90α. Put plainly: Epitope mapping by ELISA with biotinylated overlapping peptides. As to conditions: 12-amino-acid overlapping peptides, antibody 1 μg/ml, OD405. The protocol: Epitope mapping was performed using biotinylated overlapping peptides. The biotinylated overlapping peptides were prepared as described in a publicly known document (J. Immunological Methods 2002; 267:27-35). The epitope mapping was performed using a library of 12-amino-acid-long synthetic peptides each having an overlap of four amino acids.
After an avidin-coated plate was blocked with BSA, the above-described biotinylated overlapping peptides (1.25-3.75 mg/ml) were added. The plate was incubated at room temperature for 2 hours, after which it was washed with PBS/Tween 20 to remove the unreacted biotinylated overlapping peptides. Each anti-HSP90 monoclonal antibody (1 μg/ml) was added, and the plate was incubated at room temperature for 2 hours. The plate was washed with PBS/Tween 20 to remove the unreacted antibody, after which anti-mouse IgG-ALP (BD Pharmingen, used at a 2000-fold dilution) was added, and the plate was incubated at room temperature for 1 hour. The plate was washed with PBS/Tween 20 to remove the unreacted anti-mouse IgG-ALP, after which a pNPP solution (KPL, 1 mg/ml) was added, and the plate was incubated at room temperature for 3 hours to cause color development. After the color development, the plate was subjected to measurement of OD405 nm. […]

The subject of assay [3] is cell surface HSP90. Put plainly: FACS of 6H8-OVA bound to DC2.4 and DC2.4L cells with anti-OVA antibody. The procedure: Furthermore, using DC2.4L cells lacking cell surface HSP90 (a line detectable with 6H8 antibody, and showing decreased expression levels of cell surface HSP90 and H-2K^b; obtained during cultivation of DC2.4 and established by passage culture), the specificity of 6H8-OVA for cell surface HSP90 was examined. DC2.4 and DC2.4L cells were incubated along with the fractions 15 to 19 containing 6H8-OVA (mixture) (30 μg/ml), after which the cells were stained with the biotinylated anti-OVA monoclonal antibody and PE-Cy5 streptavidin, and analyzed by FACS.

B1: 6H8: anti-HSP90 monoclonal antibody produced by hybridoma FERM BP-11222; epitope … (antibody)
VH: QVQLQQSGPELVKPGASVRISCKASGYTFTSYYIHWVKQRPGQGLEWIGWIYPGNVNTKYNEKFKGKATLTADKSSSTAYMQLSSLTSEDSAVYFCARYGNYPFAYWGQGTLVTVSAAKTTAPSVYPLAPVCGDTTGSSVTLGCLVKGYF
VL: DVVMTQTPLSLPVSLGDQASISCRSSQSLVHSNGNTYLHWYLQKPGQSPKLLIYKVSNRFSGVPDRFSGSGSGTDFTLKISRVEAEDLGVYFCSQSTHVPPTFGGGTKLEIKRADAAPTVSIFPPSSEQLTSGGASVVCFLNNFYPKDINVKWKIDGS
For B1, the “detection of HSP90 in Western blot” value in the assay with HSP90 is recorded as “detected HSP90 as a single band”. Further, in the assay on cell surface HSP90 [1], the “recognition of cell surface HSP90 (FACS)” value was “recognized cell surface HSP90 with high sensitivity”. Moreover, the “recognition of cell surface HSP90 on antigen-presenting cells (FACS)” value in the assay with cell surface HSP90 [2] is listed as “recognized cell surface HSP90 on cells other than human PBMC-derived immature DC”. The “epitope region mapped (amino acid numbers)” value in the assay with mouse HSP90α is given as “HSP90α713-724”.

B2: 6H8-OVA: high molecular weight conjugate of the 6H8 antibody and maleimide-activated OVA (conjugate)
VH: B1 VH
VL: B1 VL
chain: GSIGAASMEFCFDVFKELKVHHANENIFYCPIAIMSALAMVYLGAKDSTRTQINKVVRFDKLPGFGDSIEAQCGTSVNVHSSLRDILNQITKPNDVYSFSLASRLYAEERYPILPEYLQCVKELYRGGLEPINFQTAADQARELINSWVESQTNGIIRNVLQPSSVDSQTAMVLVNAIVFKGLWEKAFKDEDTQAMPFRVTEQESKPVQMMYQIGLFRVASMASEKMKILELPFASGTMSMLVLLPDEVSGLEQLESIINFEKLTEWTSSNVMEERKIKVYLPRMKMEEKYNLTSVLMAMGITDVFSSSANLSGISSAESLKISQAVHAAHAEINEAGREVVGSAEAGVDAASVSEEFRADHPFLFCIKHIATNAVLFFGRCVSP
Consider B2, for which the “staining of DC2.4L cells with anti-OVA antibody after incubation with conjugate” value in the assay on cell surface HSP90 [3] (DC2.4L cells lacking cell surface HSP90, 30 μg/ml) is reported as “not recognized by the OVA monoclonal antibody”. For the same molecule, the “staining of DC2.4 cells with anti-OVA antibody after incubation with conjugate” value with cell surface HSP90 [3] (DC2.4 cells expressing cell surface HSP90, 30 μg/ml) is “recognized by the anti-OVA monoclonal antibody”.
